According to patent US20260130997A1 (BEAM THERAPEUTICS, published 2026):
Substitutions are numbered along the chain they refer to.

Experiments:
Test in all cases: binding to mutant CD45 D1-D2 protein relative to WT CD45 D1-D2; method not given
[1] = molecular target: T1, mutant CD45 D1-D2 protein N263S, T264A, T266A (Homo sapiens, UniProt P08575 225-394, limits assumed)
T1 chain: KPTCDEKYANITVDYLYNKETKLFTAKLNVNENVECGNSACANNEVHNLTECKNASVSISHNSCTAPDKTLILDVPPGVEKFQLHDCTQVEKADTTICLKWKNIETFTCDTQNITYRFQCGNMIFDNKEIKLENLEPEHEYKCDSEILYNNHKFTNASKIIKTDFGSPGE

[2] = molecular target: T2, mutant CD45 D1-D2 protein T264A (Homo sapiens, UniProt P08575 225-394, limits assumed)
T2 chain: T1 chain with S39N, A42T

[3] = molecular target: T3, mutant CD45 D1-D2 protein T266A, N267G (Homo sapiens, UniProt P08575 225-394, limits assumed)
T3 chain: T1 chain with S39N, A40T, N43G

[4] = molecular target: T4, mutant CD45 D1-D2 protein N267G, N268G (Homo sapiens, UniProt P08575 225-394, limits assumed)
T4 chain: T1 chain with S39N, A40T, A42T, N43G, N44G

[5] = molecular target: T5, mutant CD45 D1-D2 protein N286G (Homo sapiens, UniProt P08575 225-394, limits assumed)
T5 chain: T1 chain with S39N, A40T, A42T, N62G

[6] = molecular target: T6, mutant CD45 D1-D2 protein I283M, H285R (Homo sapiens, UniProt P08575 225-394, limits assumed)
T6 chain: T1 chain with S39N, A40T, A42T, I59M, H61R

[7] = molecular target: T7, mutant CD45 D1-D2 protein I283M, H285R, N286G (Homo sapiens, UniProt P08575 225-394, limits assumed)
T7 chain: T1 chain with S39N, A40T, A42T, I59M, H61R, N62G

[8] = molecular target: T8, mutant CD45 D1-D2 protein N253G, N255G (Homo sapiens, UniProt P08575 225-394, limits assumed)
T8 chain: T1 chain with N29G, N31G, S39N, A40T, A42T

[9] = molecular target: T9, mutant CD45 D1-D2 protein N257G (Homo sapiens, UniProt P08575 225-394, limits assumed)
T9 chain: T1 chain with N33G, S39N, A40T, A42T

[10] = molecular target: T10, mutant CD45 D1-D2 protein E259G, N262D (Homo sapiens, UniProt P08575 225-394, limits assumed)
T10 chain: T1 chain with E35G, N38D, S39N, A40T, A42T

% Mutant Binding [1]: 69.3% | % Mutant Binding [2]: 112% | % Mutant Binding [3]: 1.4% | % Mutant Binding [4]: 1.3% | % Mutant Binding [5]: 81.5% | % Mutant Binding [6]: 1% | % Mutant Binding [7]: 0.7% | % Mutant Binding [8]: 44.9% | % Mutant Binding [9]: 1.7% | % Mutant Binding [10]: 2.3%
B1: mAb U139AGL030-9 (mAb030-9) (antibody, mouse IgG1, kappa, V domains shown)
VH: EVKLLESGGGLVQPGGSLKLSCAASGFDFSRYWMSWVRQAPGKGLEWIGEINPTSSTINFTPSLKDKVFISRDNAKNTLYLQMSKVRSEDTALYYCARGNYYRYGDAMDYWGQGTSVTVSS
VL: DIALTQSPASLAVSLGQRATISCRASKSVSTSGYSYLHWYQQKPGQPPKLLIYLASNLESGVPARFSGSGSGTDFTLNIHPVEEEDAATYYCQHSRELPFTFGSGTKLEIKR
notes: In the biosensor assay the antibody was captured with Anti-Human IgG Fc Capture (AHC); also called mAb30-9; mAb039-9
